# Assay results reported in the RNAGym collection of RNA variant scans (doi:10.1073/pnas.2313332121).
# Fewer inactive variants are shown than the library holds.
# B1: TPR 5TU (parent)
# chain: GGAUCUUCUCGAUCUAACAAAAAAGACAAAUCUGCCACAAAGCUUGAGAGCAUCUUCGGAUGCAGAGGCGGCAGCCUUCGGUGGCGCGAUAGCGCCAACGUUCUCAACUAUGACACGCAAAACGCGUGCUCCGUUGAAUGGAGUUUAUCAUG
# Variants of: B1
# Experiment: polymerase ribozyme fitness, log enrichment relative to wild type (log ratio); higher = more active; in vitro selection for triplet polymerase activity
# How it was run: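 For each subunit of a heterodimeric triplet polymerase ribozyme, a mutant library was built by PCR and transcribed, then taken through a single in vitro selection round in triplicate. Selection involved annealing to a biotinylated primer, the partner subunit and triplets, incubation frozen at −7 °C, gel excision of extended constructs, capture on streptavidin beads and RT-PCR. Genotypes were retained after Illumina sequencing of inputs and outputs only with ≥10 input reads and ≥1 read in each output. Fitness is defined as the logarithm of a genotype's enrichment relative to wild-type enrichment, using inverse-variance-weighted averages across replicates, with the logarithm taken to base 2.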
row,Variant,polymerase ribozyme fitness (log ratio)
1,C5U A12U C18G G70C G80A C93G C95U A98G U144G,≤ -4.2
2,U6C A16G A24U C96A C118U,-3.92
3,U6A G25A A26C G50U A52G C76G C118G G136A,≤ -4.2
4,U6G A12U A28C G65U U127G,≤ -4.2
5,U6A C38U U44A U82G C85U C95A U101G,≤ -4.2
6,U6C C8A U111G G143C,≤ -4.2
7,U6C C38A G59U C69A,-2.2
8,C5U U82A C85A C99A U101G G140C,≤ -4.2
9,C5G U55G G83U U101C,-2.49
10,U6G A12U A28C A40C G94C,≤ -4.2
11,U6C C85U A121U U135C,-3.27
12,U6C C27U G50C A52G G58A C87U,≤ -4.2
13,C5G G46A G88A C95G U102G U135C A147C,≤ -4.2
14,U6G A16U G58A G141U,-1.34
15,C5U C51A C54G G59C G84A C116G,-3.05
16,C5G U6A C32G U77A C87G C114U,≤ -4.2
17,U6A C8A A12G C43U A64C G86C C87A,≤ -4.2
18,U6A A12U U53A C114U,-3.59
19,U6A C8G A60C G62A C85A C103A,≤ -4.2
20,C5G U45G U55G G86U C87A A91U,≤ -4.2
21,U6A U146G A150G G152A,-1.38

row,Variant,polymerase ribozyme fitness (log ratio)
1,U6G A12U A22U A64U G88C C95U,≤ -4.2
2,U6A C38G G42C G86U C93U U127A,≤ -4.2
3,C5G C35U G80U C95U U104A,≤ -4.2
4,C5U U55A,0.322
5,U6C C54G C93A C116G G141A,-4.17
6,U6C A20C A28C A37U G42U G71A C85U C99G A106G C131G,≤ -4.2
7,C5U G50C C87U C103G A121G C123U C125G,≤ -4.2
8,C5G G46U G81U C87U G88A A98U C125U,≤ -4.2
9,C5U C54G,-0.591
10,U6A A30C G58C A60U C76G A106U C149G,≤ -4.2
11,C5G C14G A41C G48C G126A G140A,≤ -4.2
12,C5U A52U G67U C93U C96U A115C,≤ -4.2
13,U6A U55A,-1.4
14,U6A U55G,-0.118
15,C5U C8U G58A A73G C114U A120G,-3.02
16,C5U A28C U56A U77C G94A,≤ -4.2
17,C5G U55A,-0.729
18,U6A A12C C87G A89U,-3.27
19,C5G C8U A28C U33A U44A C85U U90A U139C,≤ -4.2
20,C5U A12U G84U,-1.92
21,C5U A40G G84A A97G,-3.39

row,Variant,polymerase ribozyme fitness (log ratio)
1,C5G C10U C76A C87U G92A,-2.35
2,C5U A49C G81U C93G,≤ -4.2
3,C5U A23C A40C A49U G70C G94A,≤ -4.2
4,C5G U82A C95U,-0.788
5,C5U U13C C85U U101G C105A U109G A110G,≤ -4.2
6,C5U C38U C63A U77A C95U U127G G136U U144C,≤ -4.2
7,C5G C38A G58U,-1.06
8,U6C U82A C99U G136U,-3.43
9,C5G G50C C85U,-3.69
10,C5U C51A G58A G81C,-1.81
11,U6A A23U A30U G46A A47C,≤ -4.2
12,U6C U55G C132A A138G,≤ -4.2
13,U6A A37G G80A C87A U102G G152A,≤ -4.2
14,C5U A16U A26U U44A A52G G92C,≤ -4.2
15,U6A U90G C95U U109G A137C,≤ -4.2
16,U6C A40U U56A G59U C87U A98U C118U,-0.984
17,C5G U7A U56A A91C A106G C125A G136A U145A,≤ -4.2
18,C5U G50A C54A C76U G84U C95U C114U,≤ -4.2
19,C5G C27U C38G G81A U104C A115C,≤ -4.2
20,U6A C27A C85G,≤ -4.2
21,C5U C87U G94C,-2.15

row,Variant,polymerase ribozyme fitness (log ratio)
1,U6A C85U G140C,-3.99
2,U6A G68A G83C U90G C118U,≤ -4.2
3,C5U A20C C43G C76G C108G C114U A120U U146G,≤ -4.2
4,C5G G50U C57U G92C A120G,-2.75
5,C5G C18A C87G G143A,≤ -4.2
6,U6A G58U U61A A66G U82C U139C G152A,≤ -4.2
7,U6C C105G U144C G152A,-3.94
8,U6C A17U A64U A73U C85G U127A U130G A142G,≤ -4.2
9,C5U U45G A119U,-0.808
10,U6A C8A A19U A20U C72U U77A U101A,≤ -4.2
11,C5U A22U C27G C36G G83U C103G C116U G136U,≤ -4.2
12,C5G C38A A39C A60U A73G G94U U104A A138U,≤ -4.2
13,C5U A23U C32U G74U G83A C114U G136U C149U,≤ -4.2
14,C5G G83U A98U C105U,-1.03
15,C5G G50A C87U C103G U111C C132U,≤ -4.2
16,U6C A47C C85A,-3.96
17,C5U C75A,-4.03
18,C5G C35U G50A U55A C57A A66C C87A U134C,≤ -4.2
19,C5G C79A C96A,≤ -4.2
20,C5U C8G A137U U145A A147C,≤ -4.2
21,C5U C85U,-0.24
